{
  "source": "patent US20230242601A1",
  "about": "“PEPTIDE USED TO PREVENT OR TREAT SYNUCLEINOPATHY” (TOHOKU UNIVERSITY, priority 2020, published 2023)",
  "key": {"FABP3": {"biological_target": "FABP3 (Homo sapiens, UniProt P05413)", "sequence (P05413 2-133 limits assumed)": "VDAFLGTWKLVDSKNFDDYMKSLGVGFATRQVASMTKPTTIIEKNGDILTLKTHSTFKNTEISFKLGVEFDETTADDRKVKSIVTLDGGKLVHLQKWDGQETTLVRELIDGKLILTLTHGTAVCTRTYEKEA", "test": "QCM (quartz crystal microbalance) binding analysis of immobilized FABP3 with α-synuclein or its peptides", "conditions": "for binding to FABP3: His-tagged FABP3 immobilized, 2.5-20 nM analyte, 50 mM Tris-HCl pH 7.4, 25° C.; for binding affinity for FABP3 relative to the natural sequence (SynP130-140) / binding affinity for FABP3 compared with the natural sequence (SynP130-140), in words: immobilized FABP3", "description": "The substrate was washed with purified water, then 500 μL of a Ni solution (20 mM HEPES-NaOFH buffer, pH 7.5, 150 mM NaCl, 50 mM EDTA, 10 mM NiSO4) was added, and the substrate was allowed to stand at room temperature for 10 minutes. The substrate was washed with purified water, then 100 nM of FABP3 fused with a His-tag at the N-terminus diluted with a 50 mM Tris-HCl pH 7.4 was added to a quartz sensor and treated for one minute to be immobilized. […] The measurement was performed in a 500 μL liquid under conditions of 25° C. and 1000 rpm for three minutes. After the measurement, Kd, kon, and koff were each calculated with AQUA 2.0 software (Initium).\nFABP3 and various mutants of SynP130-140 were interacted in the same manner as in Example 1. The measurement was performed by adding each peptide at any concentration to the immobilized FABP3.\nThe detailed experimental method is as described in the method of Example 1."}, "[1]": {"biological_target": "α-synuclein and FABP3 (Syn-FABP3 complex) (Homo sapiens, UniProt P05413)", "sequence (P05413 whole entry, species assumed, one chain of several)": "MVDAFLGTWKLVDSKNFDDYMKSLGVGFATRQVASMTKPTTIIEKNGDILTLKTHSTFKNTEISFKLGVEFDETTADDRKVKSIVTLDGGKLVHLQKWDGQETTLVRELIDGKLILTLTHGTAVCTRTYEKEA", "test": "Thioflavin T fluorescence / TEM observation of α-synuclein amyloid fibril formation with FABP3 and peptide", "format": "biochemical", "description": "An ARVO X4 (Perkin Elmer) was used for shaking and measuring fluorescence values over time in the fibril formation process of Syn. For the measurement, the samples were added to a 96-well plate (8×12-well plate; Greiner, Kremsmuenster, Austria) to give 150 μL/well, and the fluorescence (Ex of 440 nm and Em of 486 nm) was measured every 15 minutes while the well plate was continuously shaken at 37° C. […] Samples after 1800 minutes obtained after the measurement were measured with a transmission electron microscope (TEM) (JEOL JEM-1400 Plus). To a collodion membrane (400 mesh; Nisshin EM, Tokyo, Japan), 10 μL of the sample was added and allowed to stand at room temperature for two minutes, then washed with 5 μL of purified water, stained with 5 μL of a 10% EM stain solution for one minute, and then washed with 5 μL of purified water. This was air-dried overnight and then measured.\nThe thio-T measurement and the measurement with a TEM were performed in the same manner as in Example 3.\nThe thio-T measurement and the measurement with a TEM were performed in the same manner as in Example 3. The Thio-T measurement was performed for samples to each of which SynP130-140 was added at the beginning (0 hour), after 3 hours, 8 hours, or 24 hours."}, "[2]": {"system": "cultured dopaminergic nerve cells", "test": "Antagonistic effect of C-terminal peptide on uptake of ATTO-550-labeled α-synuclein monomer into cultured dopaminergic nerves", "format": "cell-based, mouse", "conditions": "1 μM peptide with 1 μM ATTO-550-labeled α-synuclein monomer, 48 hours; p<0.0001 vs control", "description": "Cultured dopaminergic nerves were prepared according to the method (Kawahata et al. 2019) already described. Specifically, the uterus was aseptically removed from a C57BL6N mouse on day 15.5 of pregnancy by abdominal midline incision under deep isoflurane anesthesia, and the fetal mesencephalon was removed in ice-cold Hank's balanced salt solution (HBSS) under a stereomicroscope. The tissue was then dispersed by treatment with a nerve cell suspension (Sumitomo Bakelite) at 37° C. for 30 minutes, the dispersion was centrifuged at 1000 rpm for 5 minutes, and then the supernatant was discarded. The cell pellet was dispersed, then a removal solution (Sumitomo Bakelite) was added, and the mixture was centrifuged at 900 rpm for 5 minutes. The supernatant was then removed, the pellet was suspended in Eagle's minimal essential medium (EMEM) and seeded on a poly-L-lysine-coated chamber plate (Iwaki). […] Values are mean±SEM (n>20), and one-way ANOVA with Tukey test was performed for all the groups. The conceptual diagram of the synthesized α-synuclein is illustrated in C."}},
  "note": "Where no end group is shown, it is not given here.",
  "data": [
    {"substance": "SynP2-10: peptide of the N-terminal region of human α-synuclein, second to tenth amino acids (DVFMKGLSKA; partial peptide of alpha-synuclein) [reference compound]", "values": [
      {"measurement": "binding to FABP3", "setting": "FABP3; QCM", "result": "hardly bound to FABP3"}
    ]},
    {"substance": "SynP73-96: peptide of the NAC region of human α-synuclein, 73th to 96th amino acids [reference compound]", "values": [
      {"measurement": "binding to FABP3", "setting": "FABP3; QCM", "result": "hardly bound to FABP3"}
    ]},
    {"substance": "EEGFQDYEPEA [Y133F]", "values": [
      {"measurement": "Kd", "setting": "FABP3; QCM, binding to FABP3", "result": 0.1, "unit": "nM"},
      {"measurement": "binding affinity for FABP3 relative to the natural sequence (SynP130-140)", "setting": "FABP3; QCM", "result": "two-fold stronger"},
      {"measurement": "amyloid aggregate formation of α-synuclein, concentration dependence", "setting": "[1]; peptide at 0.1, 0.5 or 1 equivalent to 69 μM α-synuclein and 69 μM FABP3", "result": "preferentially binds to FABP3 in a dose-dependent manner"}
    ]},
    {"substance": "EGYQDYEPEA [10aa]", "values": [
      {"measurement": "intracellular uptake of fluorescently labeled α-synuclein (ATTO fluorescence intensity)", "setting": "[2]", "result": "inhibited the intracellular uptake"}
    ]},
    {"substance": "Y133W/Y136W: peptide in which the 133rd and 136th tyrosines in SynP130-140 were replaced by tryptophans (EEGWQDWEPEA)", "values": [
      {"measurement": "binding affinity for FABP3 compared with the natural sequence (SynP130-140), in words", "setting": "FABP3; QCM", "result": "did not change the binding affinity"}
    ]},
    {"substance": "Y136W: peptide in which the 136th tyrosine in SynP130-140 was replaced by tryptophan (EEGYQDWEPEA)", "values": [
      {"measurement": "binding affinity for FABP3 compared with the natural sequence (SynP130-140), in words", "setting": "FABP3; QCM", "result": "about the same affinity"}
    ]},
    {"substance": "Y133F/Y136F: SynP130-140 mutant in which tyrosine at position 133 and position 136 were both changed to phenylalanine (EEGFQDFEPEA)", "values": [
      {"measurement": "binding affinity for FABP3 relative to the natural sequence (SynP130-140)", "setting": "FABP3; QCM", "result": 2, "unit": "fold"}
    ]},
    {"substance": "SynP130-140: peptide of the C-terminal region of human α-synuclein composed of the 130th to 140th amino acids (EEGYQDYEPEA; partial peptide of alpha-synuclein)", "values": [
      {"measurement": "affinity for FABP3 compared with Syn", "setting": "FABP3", "result": "stronger affinity for FABP3"},
      {"measurement": "binding to FABP3", "setting": "FABP3; QCM", "result": "bound to FABP3 in a dose dependent manner"},
      {"measurement": "amyloid fibril aggregate formation of α-synuclein", "setting": "[1]; FABP3, α-synuclein and peptide added simultaneously, 1:1:1 molar ratio (69 μM each), Thio-T, 37° C.", "result": "forms amyloid tibril aggregates"},
      {"measurement": "release of Syn from the Syn-FABP3 complex and amyloid fibril formation", "setting": "[1]; equimolar peptide added to the preformed 1:1 complex at 0, 3, 8 or 24 hours", "result": "releases Syn from FABP3"}
    ]},
    {"substance": "FABP3: fatty acid-binding protein 3", "values": [
      {"measurement": "aggregation of synuclein on adding FABP3 alone", "setting": "[1]; equimolar FABP3 added to α-synuclein, no peptide, Thio-T", "result": "completely suppressed the aggregation of synuclein"}
    ]},
    {"substance": "Y136F: SynP130-140 mutant in which tyrosine at position 136 was changed to phenylalanine (EEGYQDFEPEA)", "values": [
      {"measurement": "binding affinity for FABP3 compared with the natural sequence (SynP130-140), in words", "setting": "FABP3; QCM", "result": "about the same affinity"}
    ]},
    {"substance": "Y133F/Y136W: SynP130-140 mutant with tyrosine 133 changed to phenylalanine and tyrosine 136 changed to tryptophan (EEGFQDWEPEA)", "values": [
      {"measurement": "binding affinity for FABP3 compared with the natural sequence (SynP130-140), in words", "setting": "FABP3; QCM", "result": "failed to further strengthen the binding affinity"}
    ]}
  ]
}
